Experiment [1] addresses ^HAβ3 (rat GABAA receptor β3 subunit with a triple HA tag) (rat) (UniProt P63079).
For experiment [2] the target is unchanged. The source holds these as a separate data set.
In experiment [3] the target is ^HAβ3/θIC chimera (EC and TM domains from β3, intracellular domain from θ) (rat).
The target is the same in experiment [4]. The source holds these as a separate data set.
Experiment [5] concerns the target ^HAβ3 (rat GABAA receptor β3 subunit with a triple HA tag) (rat) (UniProt P63079). The source holds these as a separate data set.
Experiment [6] addresses ^HAβ3/θIC chimera (EC and TM domains from β3, intracellular domain from θ) (rat). The source holds these as a separate data set.

The results in this text go back to PMC6802930.

Turning to “^HAβ3 (rat GABAA receptor β3 subunit with a triple HA tag) (from UniProt P63079 26-473)”, the peak whole-cell current evoked by 3 mM histamine, HEK293 cells transfected with ^HAβ3 alone (patch clamp, -80 mV) in experiment [1] worked out at 404 pA. In turn, “^zβ3Q64E (mutant β3 subunit with higher affinity for histamine) (from UniProt P63079 26-473) (receptor)” returned a share of the low-affinity component in the bimodal histamine concentration-response curve (10 μM to 10 mM), whole-cell patch clamp, HEK293 cells co-transfected with ^zβ3Q64E and ^HAβ3 (% of the total curve fit) in experiment [2] of 85. With “rat GABAA receptor α3 subunit (untagged) (from UniProt P20236 29-493)”, in experiment [3], the anti-HA surface immunofluorescence intensity of non-permeabilized HEK293 cells co-transfected with α3 and ^HAβ3/θIC (the chimera alone is rarely on the surface) was 14 AU. This substance yielded a peak whole-cell current evoked by 1 mM GABA, HEK293 cells co-transfected with α3 and ^HAβ3/θIC (patch clamp) in experiment [4] of 803 pA. In addition, the histamine (3 mM) potentiation of the response to 1 mM GABA, whole-cell patch clamp, HEK293 cells co-transfected with α3 and ^HAβ3 in experiment [5] was determined as 2.93 fold. The substance “rat GABAA receptor β3 subunit (untagged) (from UniProt P63079 26-473)” displayed an anti-HA surface immunofluorescence intensity of non-permeabilized HEK293 cells co-transfected with untagged β3 and ^HAβ3/θIC (the chimera alone is rarely on the surface) in experiment [6] of 9.9 AU.
